Test results as given in publication PMC4175358, “Conformational Analysis of the Streptococcus pneumoniae Hyaluronate Lyase and Characterization of Its Hyaluronan-specific Carbohydrate-binding Module*^([image sbox.jpg])” (The Journal of Biological Chemistry, 2014).

B1: PL8 catalytic domain of Streptococcus pneumoniae hyaluronate lyase (residues Lys288-Gln1009) (domain or fragment)
chain: KDAYTDRLDDWNGIIAGNQYYDSKNEQMAKLNQELEGKVADSLSSISSQADRTYLWEKFSNYKTSANLTATYRKLEEMAKQVTNPSSRYYQDETVVRTVRDSMEWMHKHVYNSEKSIVGNWWDYEIGTPRAINNTLSLMKEYFSDEEIKKYTDVIEKFVPDPEHFRKTTDNPFKALGGNLVDMGRVKVIAGLLRKDDQEISSTIRSIEQVFKLVDQGEGFYQDGSYIDHTNVAYTGAYGNVLIDGLSQLLPVIQKTKNPIDKDKMQTMYHWIDKSFAPLLVNGELMDMSRGRSISRANSEGHVAAVEVLRGIHRIADMSEGETKQCLQSLVKTIVQSDSYYDVFKNLKTYKDISLMQSLLSDAGVASVPRPSYLSAFNKMDKTAMYNAEKGFGFGLSLFSSRTLNYEHMNKENKRGWYTSDGMFYLYNGDLSHYSDGYWPTVNPYKMPGTTETDAKRADSDTGKVLPSAFVGTSKLDDANATATMDFTNWNQTLTAHKSWFMLKDKIAFLGSNIQNTSTDTAATTIDQRKLESGNPYKVYVNDKEASLTEQEKDYPETQSVFLESFDSKKNIGYFFFKKSSISMSKALQKGAWKDINEGQSDKEVENEFLTISQAHKQNRDSYGYMLIPNVDRATFNQMIKELESSLIENNETLQSVYDAKQGVWGIVKYDDSVSTISNQFQVLKRGVYTIRKEGDEYKIAYYNPETQESAPDQEVFKKLEQ
notes: Hyaluronate lyase (Hyl) of Streptococcus pneumoniae, PL8 catalytic domain, residues Lys288-Gln1009; The His6 tag is joined by a thrombin cleavage site; Expected mass printed as 82 kDa; also called PL8 domain; isolated PL8 domain; source: recombinant, pET28, autoinduction culture
B2: Streptococcus pneumoniae hyaluronate lyase, construct with the CBM, middle (linker) and PL8 domains (residues Lys53-Lys1006) (enzyme)
chain: KNLVENGDFGQTEDGSSPWTGSKAQGWSAWVDQKNSADASTRVIEAKDGAITISSHEKLRAALHRMVPIEAKKKYKLRFKIKTDNKIGIAKVRIIEESGKDKRLWNSATTSGTKDWQTIEADYSPTLDVDKIKLELFYETGTGTVSFKDIELVEVADQLSEDSQTDKQLEEKIDLPIGKKHVFSLADYTYKVENPDVASVKNGILEPLKEGTTNVIVSKDGKEVKKIPLKILASVKDAYTDRLDDWNGIIAGNQYYDSKNEQMAKLNQELEGKVADSLSSISSQADRTYLWEKFSNYKTSANLTATYRKLEEMAKQVTNPSSRYYQDETVVRTVRDSMEWMHKHVYNSEKSIVGNWWDYEIGTPRAINNTLSLMKEYFSDEEIKKYTDVIEKFVPDPEHFRKTTDNPFKALGGNLVDMGRVKVIAGLLRKDDQEISSTIRSIEQVFKLVDQGEGFYQDGSYIDHTNVAYTGAYGNVLIDGLSQLLPVIQKTKNPIDKDKMQTMYHWIDKSFAPLLVNGELMDMSRGRSISRANSEGHVAAVEVLRGIHRIADMSEGETKQCLQSLVKTIVQSDSYYDVFKNLKTYKDISLMQSLLSDAGVASVPRPSYLSAFNKMDKTAMYNAEKGFGFGLSLFSSRTLNYEHMNKENKRGWYTSDGMFYLYNGDLSHYSDGYWPTVNPYKMPGTTETDAKRADSDTGKVLPSAFVGTSKLDDANATATMDFTNWNQTLTAHKSWFMLKDKIAFLGSNIQNTSTDTAATTIDQRKLESGNPYKVYVNDKEASLTEQEKDYPETQSVFLESFDSKKNIGYFFFKKSSISMSKALQKGAWKDINEGQSDKEVENEFLTISQAHKQNRDSYGYMLIPNVDRATFNQMIKELESSLIENNETLQSVYDAKQGVWGIVKYDDSVSTISNQFQVLKRGVYTIRKEGDEYKIAYYNPETQESAPDQEVFKK
notes: Hyaluronate lyase (Hyl) of Streptococcus pneumoniae, a 1066-amino acid protein; residues Lys53-Lys1006, amplified from genomic DNA; lacks the N-terminal secretion signal peptide and the C-terminal cell-wall anchoring motif; the results section prints 53-1007; The His6 tag is joined by a thrombin cleavage site; Theoretical mass printed as 110.6 kDa; In solution a monomer/dimer mixture; also called …

How the values were obtained:
SpCBM70 = target: T1, SpCBM70 (Streptococcus pneumoniae, UniProt Q54873); experiment: isothermal titration calorimetry; assay type: binding; details: 25 °C, 25 mM Tris-HCl pH 7.5, 50 mM NaCl; too weak to quantify
T1 construct: gene SP_0314; N-terminal CBM70 module, Lys53-Ser212, N-terminal His6 tag with thrombin site (pET28), recombinant in E. coli; ITC construct; 4D0Q is the C-terminally His6-tagged Asn54-Ser212 form, unliganded
Excerpt: isothermal titration calorimetry on SpCBM70

[1] = target: the molecule itself; experiment: dynamic light scattering; 25 °C, triplicate, 15 acquisitions of 5 s, after size exclusion chromatography and 0.22 µm filter; Hyl 1.0-10.8 mg/ml, PL8 1.4-10.9 mg/ml; associated fraction from expected radii of a globular monomer and dimer; Kd = [monomer]^2/[dimer], dimer to monomers
[2] = target: the molecule itself; experiment: small angle X-ray scattering; 50 mM Tris-HCl pH 8.0, 500 mM NaCl, 288 K, Hyl 1.0-10.8 mg/ml; monomer/dimer mixture modelled with SASREF7MX (P2 symmetry, 30 runs each at 1.0-2.7 mg/ml) and OLIGOMER; Kd = [monomer]^2/[dimer], dimer to monomers

Molecule	Ka (SpCBM70)	Kd [1] [µM]	stoichiometry N [1]	Kd [2] [µM]	stoichiometry N [2]
Hyaluronan 4-mer	> 5 × 10^3				
B1		~180	2		
B2		~37		~43	2
